Holding throughout (assay): cell-based or functional assay
Test [1] deals with T1, human GIP receptor (human, UniProt P48546 22-466).
T1 sequence (looked up): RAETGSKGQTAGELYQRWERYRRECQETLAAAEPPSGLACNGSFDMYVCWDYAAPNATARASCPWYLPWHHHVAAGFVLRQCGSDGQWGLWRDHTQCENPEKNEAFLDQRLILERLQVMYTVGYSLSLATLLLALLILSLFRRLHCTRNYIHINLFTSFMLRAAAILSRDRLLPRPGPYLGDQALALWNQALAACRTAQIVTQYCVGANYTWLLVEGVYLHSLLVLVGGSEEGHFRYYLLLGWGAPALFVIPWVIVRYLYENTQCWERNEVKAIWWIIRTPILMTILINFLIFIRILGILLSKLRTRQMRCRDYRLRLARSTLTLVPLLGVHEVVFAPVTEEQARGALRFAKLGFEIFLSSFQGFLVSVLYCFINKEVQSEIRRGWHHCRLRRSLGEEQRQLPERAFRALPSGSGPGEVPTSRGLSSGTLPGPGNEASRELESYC

Test [2] has as its target human GLP-1 receptor (human, UniProt P43220 24-463).
Test [3] deals with human glucagon receptor (human, UniProt P47871 26-477).
For test [4], the target named is human glucagon-like peptide-1 (GLP-1) receptor (human) (UniProt P43220).
The target of test [5] is T2, human glucose-dependent insulinotropic polypeptide (GIP) receptor (human) (UniProt P48546).
T2 sequence (looked up): T1 sequence (looked up)

The target of test [6] is human glucagon receptor (human) (UniProt P47871).
The target in test [7] is human GLP-1 receptor (human, UniProt P43220 24-463). The source holds these as a separate data set.
The target of test [8] is human glucagon receptor (human, UniProt P47871 26-477). The source holds these as a separate data set.
Test [9] addresses T3, human GIP receptor (human, UniProt P48546 22-466).
T3 sequence (looked up): T1 sequence (looked up)
The source holds these as a separate data set.

Positions count from the first letter of the chain named. *1 amine or outer side, *2 acyl side, *3 side chain or, on linkers, in order; H or OH if unused. Where no end group is shown, it is not given here. Side-chain parts run from the residue outwards. [ ]: non-standard residue; d: D form. The star is where a group is joined. Decanoyl(10-(4-HOOC-PhO)) = O=C(O)c1ccc(OCCCCCCCCCC(=O)*)cc1; αMePhe(2-F) = C[C@](N)(Cc1ccccc1F)C(=O)O; γGlu = O=C(O)[C@H](CCC(=O)[*:2])N[*:1]; αMeY = C[C@](N)(Cc1ccc(O)cc1)C(=O)O; αMeL = CC(C)C[C@](C)(N)C(=O)O; Nle = CCCC[C@H](N)C(=O)O; Orn = NCCC[C@H](N)C(=O)O; AEEA = NCCOCCOCC(=O)O; Aib = CC(C)(N)C(=O)O A value given as a limit tells only on which side of the number the result lay.

B1: Example 333 (peptide)
peptide: Y[Aib]EGT[αMePhe(2-F)]TSD[Nle]SI[αMeL]LD[Orn]IAQ[Aib]K([AEEA-AEEA-γGlu-Decanoyl(10-(4-HOOC-PhO))])FI[dE][αMeY]LIK([AEEA-AEEA-γGlu-Decanoyl(10-(4-HOOC-PhO))])GGPSSGAPPPS-NH2
modifications: N-terminus assumed
SMILES: CCCC[C@H](NC(=O)[C@H](CC(=O)O)NC(=O)[C@H](CO)NC(=O)[C@@H](NC(=O)[C@](C)(Cc1ccccc1F)NC(=O)[C@@H](NC(=O)CNC(=O)[C@H](CCC(=O)O)NC(=O)C(C)(C)NC(=O)[C@@H](N)Cc1ccc(O)cc1)[C@@H](C)O)[C@@H](C)O)C(=O)N[C@@H](CO)C(=O)N[C@H](C(=O)N[C@@](C)(CC(C)C)C(=O)N[C@@H](CC(C)C)C(=O)N[C@@H](CC(=O)O)C(=O)N[C@@H](CCCN)C(=O)N[C@H](C(=O)N[C@@H](C)C(=O)N[C@@H](CCC(N)=O)C(=O)NC(C)(C)C(=O)N[C@@H](CCCCNC(=O)COCCOCCNC(=O)COCCOCCNC(=O)CC[C@H](NC(=O)CCCCCCCCCOc1ccc(C(=O)O)cc1)C(=O)O)C(=O)N[C@@H](Cc1ccccc1)C(=O)N[C@H](C(=O)N[C@H](CCC(=O)O)C(=O)N[C@@](C)(Cc1ccc(O)cc1)C(=O)N[C@@H](CC(C)C)C(=O)N[C@H](C(=O)N[C@@H](CCCCNC(=O)COCCOCCNC(=O)COCCOCCNC(=O)CC[C@H](NC(=O)CCCCCCCCCOc1ccc(C(=O)O)cc1)C(=O)O)C(=O)NCC(=O)NCC(=O)N1CCC[C@H]1C(=O)N[C@@H](CO)C(=O)N[C@@H](CO)C(=O)NCC(=O)N[C@@H](C)C(=O)N1CCC[C@H]1C(=O)N1CCC[C@H]1C(=O)N1CCC[C@H]1C(=O)N[C@@H](CO)C(N)=O)[C@@H](C)CC)[C@@H](C)CC)[C@@H](C)CC)[C@@H](C)CC
As for B1, the “cAMP EC50” value with human GIP receptor [1] was 0.0062 nM; in the test with human GLP-1 receptor [2], 0.388 nM; in the test with human glucagon receptor [3], more than 9950 nM.

B2: Example 248 (peptide)
peptide: YXEGTXTSDXXIXLDXIAQXKFIXXLIEGGPSSGAPPPSK
modifications: Y-Aib-EGT-αMeF(2F)-TSD-4Pal-Aib-I-αMeL-LD-Orn-IAQ-Aib-K((2-[2-(2-Amino-ethoxy)-ethoxy]-acetyl)2-(γ-Glu)-(10-(4-carboxyphenoxy)decanoyl))FI-(D-Glu)-αMeY-LIEGGPSSGAPPPSK((2-[2-(2-Amino-ethoxy)-ethoxy]-acetyl)2-(γ-Glu)-(10-(4-carboxyphenoxy)decanoyl))-NH2
Turning to B2, the cAMP EC50 in [4] is 0.537 nM; in [5], 0.0176 nM; in test [6] it was more than 9950 nM. Besides, the cAMP Emax in test [4] came to 89.1%; in test [5], 99.2%. Also, the “cAMP EC50 (1.0% HSA)” value with human GLP-1 receptor [7] was 56.7 nM; in the test with human glucagon receptor [8], more than 9950 nM; with human GIP receptor [9], 4.1 nM. In addition, the “cAMP Emax (1.0% HSA)” value worked out at 92.7% with human GLP-1 receptor [7] and 91.8% with human GIP receptor [9].

B3: Example 291 (peptide)
peptide: B2 peptide with X11S, I17K, K21E
modifications: Aib2, αMeF(2F)6, OMeY10, αMeL13, Orn16, Aib20, D-Glu24, αMeY25; K17 and K40: AEEA2-(γ-Glu)-CO-(CH2)10-CH3; C-terminal NH2
For B3, the “cAMP EC50” value is 0.012 nM with human GIP receptor [1], 0.207 nM in the test with human GLP-1 receptor [2] and more than 9950 nM with human glucagon receptor [3].

Turning to Y[Aib]EGT[αMePhe(2-F)]TSD[Nle]SI[αMeL]LD[Orn]IAQ[Aib]EFIK([AEEA-AEEA-γGlu-Decanoyl(10-(4-HOOC-PhO))])[αMeY]LIK([AEEA-AEEA-γGlu-Decanoyl(10-(4-HOOC-PhO))])GGPSSGAPPPS-NH2 [Example 314], the “cAMP EC50” value in the test with human GIP receptor [1] is 0.0216 nM; with human GLP-1 receptor [2], 0.673 nM; with human glucagon receptor [3], more than 9950 nM.

B4: Example 310 (peptide)
peptide: YXEGTXTSDXSIXLDXIAQXEFIKXLIKGGPSSGAPPPS
modifications: Aib2, αMeF(2F)6, hTyr10, αMeL13, Orn16, Aib20, αMeY25; K24 and K28: AEEA2-(γ-Glu)-(10-(4-carboxyphenoxy)decanoyl); C-terminal NH2
Turning to B4, the entries for the “cAMP EC50” value in the test with human GIP receptor [1], with human GLP-1 receptor [2] and with human glucagon receptor [3] were 0.025 nM, 0.347 nM and more than 9950 nM, respectively.

B5: Example 328 (peptide)
peptide: B4 peptide with I17K, K24X
modifications: Aib2, αMeF(2F)6, Nle10, αMeL13, Orn16, Aib20, D-Glu24, αMeY25; K17 and K28: AEEA2-(γ-Glu)-(10-(4-carboxyphenoxy)decanoyl); C-terminal NH2
Consider B5, for which the results for the “cAMP EC50” value in the test with human GIP receptor [1], with human GLP-1 receptor [2] and in the test with human glucagon receptor [3] were 0.00973 nM, 0.405 nM and more than 9950 nM, respectively.

B6: Example 332 (peptide)
peptide: B4 peptide with E21K, K24X
modifications: Aib2, αMeF(2F)6, hTyr10, αMeL13, Orn16, Aib20, D-Glu24, αMeY25; K21 and K28: AEEA2-(γ-Glu)-(10-(4-carboxyphenoxy)decanoyl); C-terminal NH2
Consider B6, for which the “cAMP EC50” value was 0.0109 nM with human GIP receptor [1], 0.263 nM with human GLP-1 receptor [2] and more than 9950 nM with human glucagon receptor [3].

B7: Example 327 (peptide)
peptide: B4 peptide with I17K, K24X
modifications: Aib2, αMeF(2F)6, hTyr10, αMeL13, Orn16, Aib20, D-Glu24, αMeY25; K17 and K28: AEEA2-(γ-Glu)-(10-(4-carboxyphenoxy)decanoyl); C-terminal NH2
Consider B7, for which the “cAMP EC50” value was 0.018 nM with human GIP receptor [1], 0.211 nM in the test with human GLP-1 receptor [2] and more than 9950 nM in the test with human glucagon receptor [3].

B8: Example 321 (peptide)
peptide: B4 peptide with I17K, E21K, K24X, K28E
modifications: Aib2, αMeF(2F)6, Nle10, αMeL13, Orn16, Aib20, D-Glu24, αMeY25; K17 and K21: AEEA2-(γ-Glu)-(10-(4-carboxyphenoxy)decanoyl); C-terminal NH2
Consider B8, for which the “cAMP EC50” value was 0.0107 nM with human GIP receptor [1], 0.295 nM with human GLP-1 receptor [2] and more than 9950 nM with human glucagon receptor [3].

B9: Example 335 (peptide)
peptide: B4 peptide with I17K, K24X
modifications: Aib2, αMeF(2F)6, hTyr10, αMeL13, Orn16, Aib20, D-Glu24, αMeY25; K17 and K28: AEEA2-(γ-Glu)-CO-(CH2)10-CH3; C-terminal NH2
As for B9, the “cAMP EC50” value is 0.00871 nM with human GIP receptor [1], 0.175 nM with human GLP-1 receptor [2] and more than 9950 nM with human glucagon receptor [3].

B10: Example 323 (peptide)
peptide: B4 peptide with I17K, E21K, K24X, K28E
modifications: Aib2, αMeF(2F)6, hTyr10, αMeL13, Orn16, Aib20, D-Glu24, αMeY25; K17 and K21: AEEA2-(γ-Glu)-CO-(CH2)10-CH3; C-terminal NH2
On to B10, for which the “cAMP EC50” value with human GIP receptor [1] was 0.00793 nM; in the test with human GLP-1 receptor [2], 0.203 nM; in the test with human glucagon receptor [3], more than 9950 nM.

B11: Example 320 (peptide)
peptide: B4 peptide with I17K, E21K, K24X, K28E
modifications: Aib2, αMeF(2F)6, hTyr10, αMeL13, Orn16, Aib20, D-Glu24, αMeY25; K17 and K21: AEEA2-(γ-Glu)-(10-(4-carboxyphenoxy)decanoyl); C-terminal NH2
As for B11, the “cAMP EC50” value with human GIP receptor [1] was 0.0144 nM; with human GLP-1 receptor [2] it was 0.246 nM; in the test with human glucagon receptor [3], more than 9950 nM.

(Values after patent US20230265151A1, “GIP/GLP1 CO-AGONIST COMPOUNDS” (priority 2020, published 2023).)
